{"source": "patent US20200255543A1", "about": "(ROCKEFELLER UNIVERSITY, published 2020)", "binders": {"B1": {"name": "monoclonal antibody M19 (antibody, V domains shown)", "VH": "EVQLEESGPDLKKPGETVKISCKASNYTFTDYSMHWVKQAPGKGLKWVGWINTDTGEPTYADDFKGRFAFSLETSASTAYLQINNLKNEDTATYFCARWFGAMDYWGQGTSVTVSS", "VL": "DIVITQSHKFMSTSVGDRVSITCKASQDVTNVVAWYQQKPGQSPKLLIYSASYRYTGVPDRFTGSGSGTDFTFTISSVQAEDLAVYYCQQYYRTPRTFGGGTKLEIKR", "notes": "Mouse hybridoma monoclonal antibody; Hybridoma supernatant was used in the ELISA screen, purified antibody in biolayer interferometry; also called Mer-M19"}}, "key": {"recombinant human MERTK [1]": {"target": "T1, recombinant human MERTK (human, UniProt Q12866 21-505, limits assumed)", "T1 construct": "Analyte in solution in biolayer interferometry; also called hMer", "T1 sequence": "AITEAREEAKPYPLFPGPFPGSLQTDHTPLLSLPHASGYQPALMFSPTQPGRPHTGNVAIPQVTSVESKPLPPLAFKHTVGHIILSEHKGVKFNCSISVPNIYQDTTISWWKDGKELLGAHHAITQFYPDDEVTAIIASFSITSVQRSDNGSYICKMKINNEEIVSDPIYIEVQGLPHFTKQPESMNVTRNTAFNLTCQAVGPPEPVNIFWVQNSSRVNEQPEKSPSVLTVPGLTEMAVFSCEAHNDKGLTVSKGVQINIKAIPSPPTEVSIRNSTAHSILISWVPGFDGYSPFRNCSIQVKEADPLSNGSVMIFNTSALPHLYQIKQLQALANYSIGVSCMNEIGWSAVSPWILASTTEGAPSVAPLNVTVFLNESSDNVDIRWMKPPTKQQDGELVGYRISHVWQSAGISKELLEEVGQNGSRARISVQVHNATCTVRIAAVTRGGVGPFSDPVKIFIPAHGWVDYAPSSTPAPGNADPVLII", "experiment": "biolayer interferometry, M19 loaded on AMQ sensor at 1 ug/mL, hMer in solution at 0.3125 nM, local 1:1 fit", "method": "(§1) FIG. 7: M19 binds to human MERTK with high affinity. A diagram showing antibody binding kinetics for M19 (Mer-M19) against human MERTK (hMer) using biolayer interferometry. Purified M19 was loaded on an AMQ sensor at a concentration of 1 microgram/mL to test binding against analytes in solution. All analytes were prepared at 5 nM with a 2-fold dilution series for a total of 7 concentrations. Kinetic fits were calculated using a 1:1 model, with Local fits for each concentration as well as an overall global fit.\n(§2) To characterize the binding affinity of M19 antibody against recombinant human and mouse MERTK, biomolecular interaction analysis was performed using biolayer interferometry (FIG. 7 and FIG. 8). Binding was observed between M19 and both mouse and human MERTK."}, "recombinant mouse MERTK [2]": {"target": "T2, recombinant mouse MERTK (mouse, UniProt Q60805 23-496, limits assumed)", "T2 construct": "Analyte in solution in biolayer interferometry; also called msMer; murine MERTK", "T2 sequence (looked up)": "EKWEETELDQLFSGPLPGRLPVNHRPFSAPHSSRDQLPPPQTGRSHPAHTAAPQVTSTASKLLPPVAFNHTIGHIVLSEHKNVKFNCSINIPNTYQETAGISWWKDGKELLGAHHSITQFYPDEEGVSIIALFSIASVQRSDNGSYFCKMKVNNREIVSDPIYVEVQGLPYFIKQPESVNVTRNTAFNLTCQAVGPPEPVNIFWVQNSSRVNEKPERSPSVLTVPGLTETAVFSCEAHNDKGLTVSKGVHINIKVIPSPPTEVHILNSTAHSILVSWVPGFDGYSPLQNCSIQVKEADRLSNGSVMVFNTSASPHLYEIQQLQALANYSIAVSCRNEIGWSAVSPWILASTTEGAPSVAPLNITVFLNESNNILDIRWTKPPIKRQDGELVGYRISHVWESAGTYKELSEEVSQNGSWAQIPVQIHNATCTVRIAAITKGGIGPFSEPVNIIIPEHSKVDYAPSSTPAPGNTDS", "experiment": "biolayer interferometry, global fit; mouse MERTK", "method": "as §1, with “8:” for “7:”, “murine” for “human”, “(msMer)” for “(hMer)”, “Global” for “global”"}, "recombinant human MERTK [3]": {"target": "T1, recombinant human MERTK", "experiment": "biolayer interferometry, M19 loaded on AMQ sensor at 1 ug/mL, hMer in solution at 0.625 nM, local 1:1 fit", "method": "as §1, §2"}, "recombinant mouse MERTK [4]": {"target": "T2, recombinant mouse MERTK", "experiment": "biolayer interferometry, M19 loaded on AMQ sensor at 1 ug/mL, msMer in solution at 0.1563 nM, local 1:1 fit", "method": "as §1, with “8:” for “7:”, “murine” for “human”, “(msMer)” for “(hMer)”, “Global” for “global”\nas §2"}, "recombinant human MERTK [5]": {"target": "T1, recombinant human MERTK", "experiment": "biolayer interferometry, global fit; human MERTK", "method": "as §1"}, "recombinant mouse MERTK [6]": {"target": "T2, recombinant mouse MERTK", "experiment": "biolayer interferometry, M19 loaded on AMQ sensor, msMer analyte from 5 nM in 2-fold dilutions, 1:1 model, global fit", "method": "as §1, with “8:” for “7:”, “murine” for “human”, “(msMer)” for “(hMer)”, “Global” for “global”"}, "recombinant human MERTK [7]": {"target": "T1, recombinant human MERTK", "experiment": "biolayer interferometry, M19 loaded on AMQ sensor at 1 ug/mL, hMer in solution at 0.1563 nM, local 1:1 fit", "method": "as §1, §2"}, "recombinant human MERTK [8]": {"target": "T1, recombinant human MERTK", "experiment": "biolayer interferometry, M19 loaded on AMQ sensor, hMer analyte from 5 nM in 2-fold dilutions, 1:1 model, global fit", "method": "as §1"}, "recombinant mouse MERTK [9]": {"target": "T2, recombinant mouse MERTK", "experiment": "biolayer interferometry, M19 loaded on AMQ sensor at 1 ug/mL, msMer in solution at 5 nM, local 1:1 fit", "method": "as §1, with “8:” for “7:”, “murine” for “human”, “(msMer)” for “(hMer)”, “Global” for “global”\nas §2"}, "recombinant mouse MERTK [10]": {"target": "T2, recombinant mouse MERTK", "experiment": "biolayer interferometry, M19 loaded on AMQ sensor at 1 ug/mL, msMer in solution at 2.5 nM, local 1:1 fit", "method": "as §1, with “8:” for “7:”, “murine” for “human”, “(msMer)” for “(hMer)”, “Global” for “global”\nas §2"}}, "data": [{"binder": "B1", "values": [{"measurement": "Kd", "setting": "recombinant human MERTK [1]", "result": 0.128, "unit": "nM"}, {"measurement": "koff", "setting": "recombinant human MERTK [1]", "result": 0.000968, "unit": "s⁻¹"}, {"measurement": "kon", "setting": "recombinant human MERTK [1]", "result": "7.57e+06", "unit": "M⁻¹ s⁻¹"}, {"measurement": "Kd", "setting": "recombinant mouse MERTK [2]", "result": "~0.3", "unit": "nM"}, {"measurement": "Kd", "setting": "recombinant human MERTK [3]", "result": 0.155, "unit": "nM"}, {"measurement": "koff", "setting": "recombinant human MERTK [3]", "result": 0.00079, "unit": "s⁻¹"}, {"measurement": "kon", "setting": "recombinant human MERTK [3]", "result": "5.11e+06", "unit": "M⁻¹ s⁻¹"}, {"measurement": "Kd", "setting": "recombinant mouse MERTK [4]", "result": 0.117, "unit": "nM"}, {"measurement": "koff", "setting": "recombinant mouse MERTK [4]", "result": 0.00129, "unit": "s⁻¹"}, {"measurement": "kon", "setting": "recombinant mouse MERTK [4]", "result": "1.1e+07", "unit": "M⁻¹ s⁻¹"}, {"measurement": "Kd", "setting": "recombinant human MERTK [5]", "result": "~0.3", "unit": "nM"}, {"measurement": "Kd", "setting": "recombinant mouse MERTK [6]", "result": 0.305, "unit": "nM"}, {"measurement": "Kd", "setting": "recombinant human MERTK [7]", "result": 0.621, "unit": "nM"}, {"measurement": "koff", "setting": "recombinant human MERTK [7]", "result": 0.000949, "unit": "s⁻¹"}, {"measurement": "kon", "setting": "recombinant human MERTK [7]", "result": "1.53e+06", "unit": "M⁻¹ s⁻¹"}, {"measurement": "Kd", "setting": "recombinant human MERTK [8]", "result": 0.326, "unit": "nM"}, {"measurement": "Kd", "setting": "recombinant mouse MERTK [9]", "result": 0.354, "unit": "nM"}, {"measurement": "koff", "setting": "recombinant mouse MERTK [9]", "result": 0.00133, "unit": "s⁻¹"}, {"measurement": "kon", "setting": "recombinant mouse MERTK [9]", "result": "3.77e+06", "unit": "M⁻¹ s⁻¹"}, {"measurement": "Kd", "setting": "recombinant mouse MERTK [10]", "result": 0.341, "unit": "nM"}, {"measurement": "koff", "setting": "recombinant mouse MERTK [10]", "result": 0.00159, "unit": "s⁻¹"}, {"measurement": "kon", "setting": "recombinant mouse MERTK [10]", "result": "4.66e+06", "unit": "M⁻¹ s⁻¹"}]}]}
